One data set addresses T1, DLAR D1 (Drosophila melanogaster, UniProt P16621).
T1 construct: DLAR 1448-1746; His tag (pET-15b or pET-22b); made in house; host or cells: E. coli BL21(DE3)
T1 sequence (P16621 1448-1746): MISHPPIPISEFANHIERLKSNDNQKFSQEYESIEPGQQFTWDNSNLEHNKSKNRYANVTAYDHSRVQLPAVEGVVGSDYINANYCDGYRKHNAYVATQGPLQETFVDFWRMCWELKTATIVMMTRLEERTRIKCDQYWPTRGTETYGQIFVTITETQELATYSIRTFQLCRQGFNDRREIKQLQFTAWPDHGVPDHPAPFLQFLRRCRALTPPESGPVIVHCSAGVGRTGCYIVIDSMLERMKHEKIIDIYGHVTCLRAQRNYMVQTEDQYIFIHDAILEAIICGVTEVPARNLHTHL
Put plainly: Dephosphorylation of phosphotyrosine peptides (malachite green), DLAR D1. It counts as biochemical. Particulars: 0.01 µM protein, 25 mM citrate pH 6.0, 15 min at 25°C, malachite green. An excerpt: (§1) Substrates of PTPs characterized thus far include the activation loop segments of various kinases and regulatory loops of other signaling proteins. Suitably designed peptide substrates mimic the physiologically relevant substrates of PTPs. In the present study, peptide substrates were designed for DLAR for which more information was available on its interacting partners. […] The five peptides were chosen based on their distinct charge distributions around the central phosphotyrosine residue. The phosphorylated as well as non-phosphorylated peptides were obtained from GL Bioscience, China. The peptides were >95% pure and were used after a single round of desalting using a Sephadex G25 column (GE Healthcare). The concentration of the peptide samples for biochemical studies was ascertained by UV absorption at 268 nm for the pY residue.
(§2) Phosphatase activity of the recombinant PTP domains was determined by using para-Nitrophenylphosphate (pNPP), a small molecule generic substrate, as well as phosphotyrosine containing peptides. The pNPP assay was performed as reported previously, with a modification in the buffer composition (25 mM Citrate, Glycine and HEPES (CGH), pH 6.5, 100 mM NaCl and 2 mM DTT). Phosphatase activity with the phosphotyrosine peptides was ascertained by the malachite green reaction as described for PTPs previously. Briefly, the reaction mixture comprised of 0.01 µM protein incubated with increasing concentrations of different peptides in 25 mM citrate buffer pH 6.0, 100 mM NaCl and 2 mM DTT for 15 min at 25°C. The reaction was stopped by the addition of the Biomol Green reagent (Enzo Life Sciences) and the colour developed after 20 min was quantified at 650 nm. For all the assays, kinetic constants for the steady state catalysis were obtained by fitting the reaction curves to the Michaelis-Menten equation using the nonlinear regression module of Sigma plot software (Systat Software, Inc.).

Data set [1] addresses T2, DLAR D1 D2HSS (Drosophila melanogaster, UniProt P16621, C1961S).
T2 construct: DLAR 1448-2029; His tag (pET-15b or pET-22b); made in house; host or cells: E. coli BL21(DE3)
In kind it is biochemical. Particulars: 0.01 µM protein, 25 mM citrate pH 6.0, 15 min at 25°C, malachite green.
Excerpt: as §1, §2

Data set [2] has as its target T3, DLAR D1D2 (Drosophila melanogaster, UniProt P16621).
T3 construct: DLAR 1448-2029; His tag (pET-15b or pET-22b); made in house; host or cells: E. coli BL21(DE3)
T3 sequence (P16621 1448-2029): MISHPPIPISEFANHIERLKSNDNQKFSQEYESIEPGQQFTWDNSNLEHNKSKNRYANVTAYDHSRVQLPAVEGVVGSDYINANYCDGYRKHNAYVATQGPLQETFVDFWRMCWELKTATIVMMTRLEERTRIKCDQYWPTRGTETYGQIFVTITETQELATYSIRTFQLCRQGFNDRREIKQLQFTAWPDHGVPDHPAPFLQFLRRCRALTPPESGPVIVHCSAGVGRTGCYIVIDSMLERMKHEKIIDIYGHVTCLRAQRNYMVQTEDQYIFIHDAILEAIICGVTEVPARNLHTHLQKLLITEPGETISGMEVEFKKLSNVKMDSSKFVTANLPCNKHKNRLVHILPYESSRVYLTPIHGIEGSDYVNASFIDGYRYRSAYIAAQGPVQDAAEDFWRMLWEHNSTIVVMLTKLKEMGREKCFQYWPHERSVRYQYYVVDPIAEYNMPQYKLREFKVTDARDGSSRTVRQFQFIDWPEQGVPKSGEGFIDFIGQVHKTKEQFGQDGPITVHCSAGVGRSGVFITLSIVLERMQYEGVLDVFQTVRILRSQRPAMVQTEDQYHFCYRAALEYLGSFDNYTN
Put plainly: Surface Plasmon Resonance peptide binding, DLAR D1D2. Particulars: two-site model; for kon: read-out: ka. Here is the method: (§3) The binding of phosphotyrosine peptides to the PTP domains was studied by Surface Plasmon Resonance on a Biacore-2000 instrument (BIAcore, AB). All experiments were conducted at 25°C. DLAR PTP domains were immobilized onto carboxylated dextran CM5 chips (BIAcore AB) using the standard amine coupling procedure as recommended by the manufacturer. Binding and kinetic assays were performed in 10 mM HEPES, pH 8.0, 150 mM NaCl, 10 mM DTT and 3 mM EDTA at a flow rate of 5 µL/min. The peptides were used at concentrations ranging from 50–700 µM. Dissociation was initiated by replacing the analyte with buffer. The association and dissociation curves were monitored for 600 sec. Sensograms were analyzed with BIA-evaluation software version 2 (BIAcore AB). Sensograms for DLAR D1D2, DLAR D1HSSD2 and DLAR D1D2HSS were fitted to two-site binding equations. DLAR D1 and DLAR D2 sensograms were fitted using a single-site binding model.

Another data set addresses T4, DLAR D1HSS D2 (Drosophila melanogaster, UniProt P16621, C1670S).
T4 construct: DLAR 1448-2029; His tag (pET-15b or pET-22b); made in house; host or cells: E. coli BL21(DE3)
T4 sequence (P16621 1448-2029 C1670S): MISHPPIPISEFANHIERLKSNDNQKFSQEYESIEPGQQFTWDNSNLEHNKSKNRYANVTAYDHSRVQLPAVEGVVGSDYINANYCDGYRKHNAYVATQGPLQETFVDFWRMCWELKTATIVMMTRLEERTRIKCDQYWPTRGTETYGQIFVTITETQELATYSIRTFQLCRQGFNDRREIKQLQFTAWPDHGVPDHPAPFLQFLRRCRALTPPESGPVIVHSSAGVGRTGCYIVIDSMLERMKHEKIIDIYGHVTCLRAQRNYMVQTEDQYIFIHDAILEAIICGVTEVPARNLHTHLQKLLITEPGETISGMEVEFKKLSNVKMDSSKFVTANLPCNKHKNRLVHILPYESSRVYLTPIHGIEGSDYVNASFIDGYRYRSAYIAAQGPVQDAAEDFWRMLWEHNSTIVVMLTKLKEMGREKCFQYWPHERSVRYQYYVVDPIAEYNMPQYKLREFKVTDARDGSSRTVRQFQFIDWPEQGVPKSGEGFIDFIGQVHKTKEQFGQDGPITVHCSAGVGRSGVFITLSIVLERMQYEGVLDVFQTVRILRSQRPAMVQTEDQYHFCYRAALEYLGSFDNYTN
Put plainly: Surface Plasmon Resonance peptide binding, DLAR D1HSS D2. Particulars: two-site model, read-out: ka. Here is the method:
as §3

For data set [3], the target named is T3, DLAR D1D2. Put plainly: Dephosphorylation of phosphotyrosine peptides (malachite green), DLAR D1D2. It counts as biochemical. The note with it: 0.01 µM protein, 25 mM citrate pH 6.0, 15 min at 25°C, malachite green.
Excerpt: as §1, §2

Data set [4] addresses T2, DLAR D1 D2HSS. The data set is described as follows: Surface Plasmon Resonance peptide binding, DLAR D1 D2HSS. The note with it: two-site model, read-out: ka. How it is done:
as §3

Substrate in data set [5]: CC(C)C[C@H](NC(=O)[C@H](C)NC(=O)CNC(=O)[C@H](Cc1ccc(OP(=O)(O)O)cc1)NC(=O)[C@H](CC(=O)O)NC(=O)[C@@H]1CCCN1C(=O)[C@H](CCC(=O)O)NC(=O)[C@H](C)NC(=O)[C@@H](N)[C@@H](C)O)C(=O)N[C@@H](Cc1ccc(O)cc1)C(=O)N[C@@H](CCC(=O)O)C(=O)O
Put plainly: purified protein, by the assay type. The note with it: other: 0.01 µM protein, 25 mM citrate pH 6.0, 15 min at 25°C, malachite green.

Substrate in data set [6]: CC[C@H](C)[C@H](NC(=O)[C@H](CC(=O)O)NC(=O)[C@H](CCCNC(=N)N)NC(=O)[C@@H](N)[C@@H](C)O)C(=O)N[C@@H](Cc1ccc(OP(=O)(O)O)cc1)C(=O)N[C@@H](CCC(=O)O)C(=O)N[C@H](C(=O)N[C@@H](CC(=O)O)C(=O)N[C@@H](Cc1ccc(O)cc1)C(=O)N[C@@H](Cc1ccc(O)cc1)C(=O)N[C@@H](CCCNC(=N)N)C(=O)N[C@@H](CCCCN)C(=O)O)[C@@H](C)O
The data set is described as follows: purified protein, by the assay type. Particulars: other: 0.01 µM protein, 25 mM citrate pH 6.0, 15 min at 25°C, malachite green.

[7] abbreviates: pH 8, SPR Biacore-2000, 25°C, 10 mM HEPES pH 8.0, 150 mM NaCl, 10 mM DTT, 3 mM EDTA, peptides 50–700 µM, first binding site.
Setting [8] is: pH 8, SPR, 25°C, pH 8.0, second binding site.

Like-named read-outs stand apart in the source and are kept apart here.

T2 sequence (P16621 1448-2029 C1961S): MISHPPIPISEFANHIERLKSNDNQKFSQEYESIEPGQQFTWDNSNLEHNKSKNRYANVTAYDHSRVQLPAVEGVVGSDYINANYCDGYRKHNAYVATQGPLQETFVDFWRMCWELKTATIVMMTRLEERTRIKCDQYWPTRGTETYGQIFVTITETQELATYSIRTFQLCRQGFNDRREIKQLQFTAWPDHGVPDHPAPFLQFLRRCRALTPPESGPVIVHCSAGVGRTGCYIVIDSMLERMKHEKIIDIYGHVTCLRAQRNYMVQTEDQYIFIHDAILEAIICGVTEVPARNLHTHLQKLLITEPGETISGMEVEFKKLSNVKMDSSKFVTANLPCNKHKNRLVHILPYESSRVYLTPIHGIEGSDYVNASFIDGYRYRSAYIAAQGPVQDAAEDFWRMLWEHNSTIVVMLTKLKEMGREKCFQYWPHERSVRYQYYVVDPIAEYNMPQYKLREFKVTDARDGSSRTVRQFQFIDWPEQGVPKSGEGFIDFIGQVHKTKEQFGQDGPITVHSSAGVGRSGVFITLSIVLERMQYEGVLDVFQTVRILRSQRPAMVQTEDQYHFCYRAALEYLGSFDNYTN

In the case of `CC[C@H](C)[C@H](NC(=O)[C@H](CC(=O)O)NC(=O)[C@H](CCCNC(=N)N)NC(=O)[C@@H](N)[C@@H](C)O)C(=O)N[C@@H](Cc1ccc(OP(=O)(O)O)cc1)C(=O)N[C@@H](CCC(=O)O)C(=O)N[C@H](C(=O)N[C@@H](CC(=O)O)C(=O)N[C@@H](Cc1ccc(O)cc1)C(=O)N[C@@H](Cc1ccc(O)cc1)C(=O)N[C@@H](CCCNC(=N)N)C(=O)N[C@@H](CCCCN)C(=O)O)[C@@H](C)O` [Insulin Receptor peptide], the Km at DLAR D1 stood at 59.5 ± 5.6 µM; at DLAR D1 D2HSS [1] it was 45.3 ± 4.1 µM; on DLAR D1D2 [3], 110 ± 7.82 µM. On DLAR D1D2 [2] (SPR, 25°C, pH 8.0, first binding site), this molecule had a Kd of 62.2 ± 0.48 µM. Also, the kon came out at 110 ± 2.32 M⁻¹ s⁻¹ at DLAR D1D2 [2] (setting [7]); 2860 ± 90000 M⁻¹ s⁻¹ on DLAR D1D2 [2] (setting [8]); 72.6 ± 1.2 M⁻¹ s⁻¹ on DLAR D1HSS D2 (setting [7]); 74.5 ± 1.6 M⁻¹ s⁻¹ on DLAR D1HSS D2 (setting [8]); 137 ± 2.84 M⁻¹ s⁻¹ on DLAR D1 D2HSS [4] (setting [7]); 12.3 ± 0.02 M⁻¹ s⁻¹ at DLAR D1 D2HSS [4] (setting [8]).

B1: PTP99A D1 (Drosophila melanogaster) (protein)
chain: DEIRAAVPVNEFAKHVASLHADGDIGFSREYEAIQNECISDDLPCEHSQHPENKRKNRYLNITAYDHSRVHLHPTPGQKKNLDYINANFIDGYQKGHAFIGTQGPLPDTFDCFWRMIWEQRVAIIVMITNLVERGRRKCDMYWPKDGVETYGVIQVKLIEEEVMSTYTVRTLQIKHLKLKKKKQCNTEKLVYQYHYTNWPDHGTPDHPLPVLNFVKKSSAANPAEAGPIVVHCSAGVGRTGTYIVLDAMLKQIQQKNIVNVFGFLRHIRAQRNFLVQTEEQYIFLHDALVEAIASGETNLMAEQVEE
Turning to B1, in data set [5], the Km came out at 309.04 ± 33.32 µM, the maximal velocity (Vmax) turned out to be 1.26 µmol/min/mg, the kcat came out at 0.84 ± 0.04 s⁻¹ and the kcat/Km turned out to be 2718 ± 15 M⁻¹ s⁻¹. In data set [6], the Km was 1017 ± 161.84 µM, the Vmax was determined as 2.37 µmol/min/mg, the kcat came out at 1.58 ± 0.11 s⁻¹ and the kcat/Km came to 1550 ± 22 M⁻¹ s⁻¹.

B2: PTP99A D1 D2 (Drosophila melanogaster) (protein)
chain: DEIRAAVPVNEFAKHVASLHADGDIGFSREYEAIQNECISDDLPCEHSQHPENKRKNRYLNITAYDHSRVHLHPTPGQKKNLDYINANFIDGYQKGHAFIGTQGPLPDTFDCFWRMIWEQRVAIIVMITNLVERGRRKCDMYWPKDGVETYGVIQVKLIEEEVMSTYTVRTLQIKHLKLKKKKQCNTEKLVYQYHYTNWPDHGTPDHPLPVLNFVKKSSAANPAEAGPIVVHCSAGVGRTGTYIVLDAMLKQIQQKNIVNVFGFLRHIRAQRNFLVQTEEQYIFLHDALVEAIASGETNLMAEQVEELKNCTPYLEQQYKNIIQFQPKDIHIASAMKQVNSIKNRGAIFPIEGSRVHLTPKPGEDGSDYINASWLHGFRRLRDFIVTQHPMAHTIKDFWQMVWDHNAQTVVLLSSLDDINFAQFWPDEATPIESDHYRVKFLNKTNKSDYVSRDFVIQSIQDDYELTVKMLHCPSWPEMSNPNSIYDFIVDVHERCNDYRNGPIVIVDRYGGAQACTFCAISSLAIEMEYCSTANVYQYAKLYHNKRPGVWTSSEDIRVIYNILSFLPGNLNLLKRTALRTEFEDVTTATPDLYSKICSNG
For B2, in data set [5], the Michaelis constant (Km) stood at 112.42 ± 10.14 µM, the Vmax worked out at 17.1 µmol/min/mg, the kcat turned out to be 21.1 ± 0.82 s⁻¹ and the catalytic efficiency (kcat/Km) came out at 188000 ± 12900 M⁻¹ s⁻¹. In addition, in data set [6], the Km is given as 35.75 ± 2.08 µM, the maximal velocity (Vmax) was found to be 46 µmol/min/mg, the kcat is 56.9 ± 1.03 s⁻¹ and the kcat/Km came to 1.638e+06 ± 7400 M⁻¹ s⁻¹.

One may read the Km as the concentration of substrate that gives half-maximal velocity. In general, Kd refers to the concentration at which binding is half-saturated. For orientation: Vmax means the top rate of the reaction or transport when substrate is in excess. As usually defined, the kcat is the number of substrate molecules converted per active site and unit of time at saturation. The term kcat/Km denotes the turnover number divided by the Michaelis constant.

These data come from PMC3172300, “Modulation of Catalytic Activity in Multi-Domain Protein Tyrosine Phosphatases” (PLoS ONE, 2011).
